The values below come from IntAct's records for PubMed 21720390.

B1: NAD-dependent protein deacetylase sirtuin-3, mitochondrial (Homo sapiens), Q9NTG7 (parent)
chain: MAFWGWRAAAALRLWGRVVERVEAGGGVGPFQACGCRLVLGGRDDVSAGLRGSHGARGEPLDPARPLQRPPRPEVPRAFRRQPRAAAPSFFFSSIKGGRRSISFSVGASSVVGSGGSSDKGKLSLQDVAELIRARACQRVVVMVGAGISTPSGIPDFRSPGSGLYSNLQQYDLPYPEAIFELPFFFHNPKPFFTLAKELYPGNYKPNVTHYFLRLLHDKGLLLRLYTQNIDGLERVSGIPASKLVEAHGTFASATCTVCQRPFPGEDIRADVMADRVPRCPVCTGVVKPDIVFFGEPLPQRFLLHVVDFPMADLLLILGTSLEVEPFASLTEAVRSSVPRLLINRDLVGPLAWHPRSRDVAQLGDVVHGVESLVELLGWTEEMRDLVQRETGKLDGPDK

The test covers variants of B1. The settings on record: with aldh2_human ALDH2, P05091.
Sequence of aldh2_human ALDH2, P05091 (P05091 whole entry): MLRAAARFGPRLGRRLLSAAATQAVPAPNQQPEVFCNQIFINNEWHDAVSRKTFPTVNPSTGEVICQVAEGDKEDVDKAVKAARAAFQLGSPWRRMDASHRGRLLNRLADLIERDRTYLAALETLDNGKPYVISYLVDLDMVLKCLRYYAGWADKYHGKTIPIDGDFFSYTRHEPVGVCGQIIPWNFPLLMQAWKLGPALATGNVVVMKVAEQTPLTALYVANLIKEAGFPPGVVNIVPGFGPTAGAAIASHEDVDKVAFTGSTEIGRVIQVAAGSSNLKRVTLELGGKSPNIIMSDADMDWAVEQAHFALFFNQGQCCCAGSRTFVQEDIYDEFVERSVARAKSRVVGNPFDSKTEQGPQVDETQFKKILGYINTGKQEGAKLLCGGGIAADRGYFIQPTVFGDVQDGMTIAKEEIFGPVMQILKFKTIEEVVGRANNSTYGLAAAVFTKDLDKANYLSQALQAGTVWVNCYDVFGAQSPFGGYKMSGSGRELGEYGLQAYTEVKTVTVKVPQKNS
H248Y: the “effect of a mutation on the interaction” value is given as “decreasing interaction”.
